Two molecules from patent publication US7018812 (DUKE UNIVERSITY, dated 2006) can be followed below.

Bridges are numbered along the chain shown (N, C = ends). Where no end group is shown, it is not given here.

The target in test [1] is wild-type V2R receptor (vasopressin V2 receptor), HA-tagged (human) (UniProt P30518). The test can be described thus: cell-based or functional assay.
The target of test [2] is β2AR-V2R chimera (Homo sapiens (Human)) (UniProt P07550). The test can be described thus: cell-based or functional assay.
The target in test [3] is T1, V2R-β2AR chimera (human).
T1 construct: Whole receptor on HEK-293 cells; also called V2-β2AR; V2R-p2AR
T1 chain: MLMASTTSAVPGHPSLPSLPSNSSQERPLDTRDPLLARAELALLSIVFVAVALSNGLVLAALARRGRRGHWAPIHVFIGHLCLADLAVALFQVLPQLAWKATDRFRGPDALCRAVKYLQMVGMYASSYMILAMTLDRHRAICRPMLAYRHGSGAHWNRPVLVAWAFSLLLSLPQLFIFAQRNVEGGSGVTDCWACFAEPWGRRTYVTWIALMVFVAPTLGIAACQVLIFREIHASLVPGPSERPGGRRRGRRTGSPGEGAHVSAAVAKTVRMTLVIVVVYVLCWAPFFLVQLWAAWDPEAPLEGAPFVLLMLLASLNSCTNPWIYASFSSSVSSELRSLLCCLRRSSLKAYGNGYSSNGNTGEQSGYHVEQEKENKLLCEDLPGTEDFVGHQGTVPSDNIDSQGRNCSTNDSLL
Nature of the test: cell-based or functional assay.

In test [4] the target is wild-type β2AR receptor (β2-adrenergic receptor), HA-tagged (Homo sapiens (Human)) (UniProt P07550). Nature of the test: cell-based or functional assay.
Test [5] deals with T1, V2R-β2AR chimera. The test can be described thus: [3H]AVP binding to membrane proteins of transfected HEK-293 cells; affinity not given. On the procedure:
Membrane proteins (10 μg) from transfected HEK-293 cells expressing the V2R and V2R-β_2AR chimera were incubated in PBS containing 2% BSA at room temperature with increasing concentrations of [^3H] […] Binding was terminated by rapid filtration and consecutive washes with ice-cold wash buffer ([…], 50 mM Tris-HCl, pH=7.2).

Setting [6] is: scale: % of Vmax measured under Naive conditions.

For the molecule β-arrestin, the impairment of recovery of Vmax of adenylyl cyclase activity one hour after agonist removal (resensitization) in test [1] was found to be 54%; in test [2], 66%. The internalized receptor recycled back to the plasma membrane 60 min after agonist removal (flow cytometry) was 23% in test [1], 11% in test [2], 89% with V2R-β2AR chimera [3] and 65% in test [4]. The reduction in receptor phosphorylation 60 min after agonist removal (32P, immunoprecipitation) was 3 % decrease in test [1], 67 % reduction with V2R-β2AR chimera [3] and 48 % reduction in test [4]. Moreover, the change in receptor phosphorylation 60 min after agonist removal (32P, immunoprecipitation) in test [2] was determined as 12 % increase. Further, the results for the recovery of Vmax of adenylyl cyclase activity one hour after agonist removal (resensitization) (with V2R-β2AR chimera [3] (setting [6]); in test [4] (setting [6])) were 102 and 100, respectively.

B1: arginine vasopressin (peptide, UniProt P01185 20-28, looked up)
peptide: CYFQNCPRG-NH2
modifications: disulfide 1-6 (inferred); ends not checked; also: tritium label ([3H]AVP), place not given here
notes: mature; only the hormone peptide stood in the assay; also called AVP; [3H]AVP
With B1, the binding result with V2R-β2AR chimera [5] was “binds”.
